Drawing on publication PMC8611336, this text covers response for 1 substance.

Assay [1] addresses SUVs of PM lipid composition. The experiment in a line: microscale thermophoresis (MST). To be noted: value read at the highest lipid concentration, about 1600 µM; n = 3; parent: est. 105; read off a plot.
The target in assay [2] is SUVs of NE lipid composition. As to the kind of experiment: microscale thermophoresis (MST). To be noted: value read at the highest lipid concentration, about 1600 µM; n = 3; parent: est. 88; read off a plot.

On to “AαH peptide (Apq12 58-68, …) L58D; F61R; I62N; F68N”, for which the values for the response in assay [1] and in assay [2] were 35% and 50%, respectively.
